The numbers were not newly measured in paper PMC3373023, which cites them from elsewhere.

Among the targets are Asp42 (UniProt position 63, KRGCADNCPKN); Asp59 (UniProt position 80, VCCSTDKCN--); Glu17 (UniProt position 38, YKTCPEGKNLC); His4 (UniProt position 25, YTLKCHNTQLP); Asp27 (UniProt position 156, PLCGSDNKTYG); Asp7 (UniProt position 136, AAVSVDCSEYP); Glu10 (UniProt position 139, SVDCSEYPKPA); Glu19 (UniProt position 148, PACTLEYRPLC); Glu43 (UniProt position 172, CNAVVESNGTL); His52 (UniProt position 181, TLTLSHFGKC-); Lys13 (UniProt position 142, CSEYPKPACTL); Lys29 (UniProt position 158, CGSDNKTYGNK); Lys34 (UniProt position 163, KTYGNKCNFCN); Lys55 (UniProt position 184, LSHFGKC----); Tyr11 (UniProt position 140, VDCSEYPKPAC); Tyr20 (UniProt position 149, ACTLEYRPLCG); Tyr31 (UniProt position 160, SDNKTYGNKCN).

On to “Cardiotoxin V (CTX A5, cardiotoxin A5) (Naja naja atra (Naja atra, Taiwan cobra))”, for which the pKa (as a rule, the negative logarithm of the acid dissociation constant) in the data set with Asp42 was 3.2; with Asp59 it was less than 2.3; with Glu17, 4.0; in the data set with His4 it was 5.6.
Consider “Turkey ovomucoid third domain (OMTKY3) (Meleagris gallopavo)”, for which the pKa with Asp27 is no more than 2.3; in the data set with Asp7, no more than 2.7; in the data set with Glu10, 4.2; with Glu19, 3.2; in the data set with Glu43, 4.8; with His52 it was 7.5. Besides, the pKa with Lys13 is recorded as 9.9; in the data set with Lys29 it was 11.1; in the data set with Lys34, 10.1; with Lys55 it was 11.1; in the data set with Tyr11, 10.2; in the data set with Tyr20 it was 11.1. The pKa with Tyr31 was greater than 12.5.
